This is an account of results in US10428140B2, “Anti-EphA4 antibody” (EISAI R&D MANAGEMENT CO., LTD., priority 2015, dated 2019).

The chains are these.
T1: human EphB2 (Homo sapiens, UniProt P29323)
T1 construct: a protein of the extracellular region of each human Eph receptor fused with the SEAP protein and the His tag; made in house; host or cells: Expi293F cells
T1 sequence (P29323 19-543 limits assumed): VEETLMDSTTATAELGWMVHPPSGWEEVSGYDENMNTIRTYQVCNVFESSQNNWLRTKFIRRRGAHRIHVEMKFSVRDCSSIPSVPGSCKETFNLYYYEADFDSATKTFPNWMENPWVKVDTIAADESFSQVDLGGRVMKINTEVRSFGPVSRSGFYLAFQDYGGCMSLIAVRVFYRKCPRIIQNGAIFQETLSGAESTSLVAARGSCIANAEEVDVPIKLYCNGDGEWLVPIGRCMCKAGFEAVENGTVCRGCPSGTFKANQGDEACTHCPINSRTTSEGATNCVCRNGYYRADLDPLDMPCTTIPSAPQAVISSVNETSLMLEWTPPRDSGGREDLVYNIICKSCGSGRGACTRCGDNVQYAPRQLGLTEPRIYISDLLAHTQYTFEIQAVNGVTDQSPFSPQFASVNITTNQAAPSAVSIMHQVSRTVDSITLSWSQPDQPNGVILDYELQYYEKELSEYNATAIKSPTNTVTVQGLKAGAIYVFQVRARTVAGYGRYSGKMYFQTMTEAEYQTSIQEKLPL

T2: human EphB3 (Homo sapiens, UniProt P54753)
T2 construct: a protein of the extracellular region of each human Eph receptor fused with the SEAP protein and the His tag; made in house; host or cells: Expi293F cells
T2 sequence (P54753 34-559 limits assumed): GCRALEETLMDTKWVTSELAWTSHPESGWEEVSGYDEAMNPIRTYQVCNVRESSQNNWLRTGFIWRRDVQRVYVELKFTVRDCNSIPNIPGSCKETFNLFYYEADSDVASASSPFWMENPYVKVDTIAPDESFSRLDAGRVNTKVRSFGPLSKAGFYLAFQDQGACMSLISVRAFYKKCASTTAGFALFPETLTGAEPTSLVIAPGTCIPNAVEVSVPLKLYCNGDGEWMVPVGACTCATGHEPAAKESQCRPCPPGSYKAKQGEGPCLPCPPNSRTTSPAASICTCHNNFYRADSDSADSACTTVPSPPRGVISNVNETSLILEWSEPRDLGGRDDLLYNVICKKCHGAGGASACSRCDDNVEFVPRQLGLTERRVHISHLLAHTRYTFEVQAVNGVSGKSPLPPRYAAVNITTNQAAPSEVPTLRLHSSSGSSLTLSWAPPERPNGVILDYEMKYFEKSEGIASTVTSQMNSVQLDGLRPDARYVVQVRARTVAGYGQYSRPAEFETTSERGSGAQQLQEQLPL

B1: 75 (antibody)
VH: QVQLVQSGSELKKPGASVKVSCKASGYTFTDYSMHWVRQAPGQGLEWMGWINTETGEPTYAQGFTGRFVFSLDTSVSTAYLQISSLKAEDTAVYYCARIPLYYYGSRYWYFDVWGQGTTVTVSS
VL: DIQMTQSPSSLSASVGDRVTITCRASENIYRNLAWYQQKPGKAPKLLVYAATNLADGVPSRFSGSGSGTDYTLTISSLQPEDFATYYCQHFWGTPWTFGQGTKVEIK
chain: ASTKGPSVFPLAPSSKSTSGGTAALGCLVKDYFPEPVTVSWNSGALTSGVHTFPAVLQSSGLYSLSSVVTVPSSSLGTQTYICNVNHKPSNTKVDKRVEPKSCDKTHTCPPCPAPPAAAPSVFLFPPKPKDTLMISRTPEVTCVVVDVSHEDPEVQFNWYVDGVEVHNAKTKPREEQFNSTFRVVSVLTVVHQDWLNGKEYKCKVSNKGLPAPIEKTISKTKGQPREPQVYTLPPSREEMTKNQVSLTCLVKGFYPSDIAVEWESNGQPENNYKTTPPMLDSDGSFFLYSKLTVDKSRWQQGNVFSCSVMHEALHNHYTQKSLSLSPG
modifications: synthetic humanized antibody heavy chain variable region sequence; synthetic humanized antibody light chain variable region sequence; synthetic antibody constant region sequence
B2: 78 (antibody, V domains shown)
VH: B1 VH with E46K, Q62D, G63D, T65K
VL: B1 VL
modifications: synthetic humanized antibody heavy chain variable region sequence; synthetic humanized antibody light chain variable region sequence
B3: 76 (antibody, V domains shown)
VH: B1 VH with E46K
VL: B1 VL
modifications: synthetic humanized antibody heavy chain variable region sequence; synthetic humanized antibody light chain variable region sequence
B4: 136 (antibody, V domains shown)
VH: B1 VH with E46K, Q62D, G63D, T65K
VL: EIVMTQSPATLSVSPGERATLSCRASENIYRNLAWYQQKPGQSPRLLIYAATNLADGIPARFSGSGSGTEYTLTISSLQSEDFAVYYCQHFWGTPWTFGQGTKVEIK
modifications: synthetic humanized antibody heavy chain variable region sequence; synthetic humanized antibody light chain variable region sequence
B5: 156 (antibody, V domains shown)
VH: B1 VH with V2I, E46K
VL: B1 VL with K45Q, V48L
modifications: synthetic humanized antibody heavy chain variable region sequence; synthetic humanized antibody light chain variable region sequence
B6: 77 (antibody, V domains shown)
VH: B1 VH with Q62D, G63D, T65K
VL: B1 VL
modifications: synthetic humanized antibody heavy chain variable region sequence; synthetic humanized antibody light chain variable region sequence
B7: 67 (antibody, V domains shown)
VH: B1 VH with V2I, E46K
VL: B1 VL
modifications: synthetic humanized antibody heavy chain variable region sequence; synthetic humanized antibody light chain variable region sequence

Changes are numbered by the printed parent chain.

T4 sequence (P54756 25-573 limits assumed): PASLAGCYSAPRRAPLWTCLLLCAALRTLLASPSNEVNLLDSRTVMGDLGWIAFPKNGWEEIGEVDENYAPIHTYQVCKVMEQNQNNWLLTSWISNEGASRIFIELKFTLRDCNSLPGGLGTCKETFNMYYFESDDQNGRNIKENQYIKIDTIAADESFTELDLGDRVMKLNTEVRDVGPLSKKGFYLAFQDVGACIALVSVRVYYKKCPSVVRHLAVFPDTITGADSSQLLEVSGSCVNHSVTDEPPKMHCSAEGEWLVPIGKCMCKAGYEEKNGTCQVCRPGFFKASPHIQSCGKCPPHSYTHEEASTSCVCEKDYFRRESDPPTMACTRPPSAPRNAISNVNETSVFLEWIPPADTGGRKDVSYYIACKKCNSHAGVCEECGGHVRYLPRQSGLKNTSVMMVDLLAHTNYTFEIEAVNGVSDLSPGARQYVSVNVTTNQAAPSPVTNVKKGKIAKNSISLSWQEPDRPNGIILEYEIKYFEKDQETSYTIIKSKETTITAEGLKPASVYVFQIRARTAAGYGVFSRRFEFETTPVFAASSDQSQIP
SEAP-His, sequence (P05187 23-511 limits assumed): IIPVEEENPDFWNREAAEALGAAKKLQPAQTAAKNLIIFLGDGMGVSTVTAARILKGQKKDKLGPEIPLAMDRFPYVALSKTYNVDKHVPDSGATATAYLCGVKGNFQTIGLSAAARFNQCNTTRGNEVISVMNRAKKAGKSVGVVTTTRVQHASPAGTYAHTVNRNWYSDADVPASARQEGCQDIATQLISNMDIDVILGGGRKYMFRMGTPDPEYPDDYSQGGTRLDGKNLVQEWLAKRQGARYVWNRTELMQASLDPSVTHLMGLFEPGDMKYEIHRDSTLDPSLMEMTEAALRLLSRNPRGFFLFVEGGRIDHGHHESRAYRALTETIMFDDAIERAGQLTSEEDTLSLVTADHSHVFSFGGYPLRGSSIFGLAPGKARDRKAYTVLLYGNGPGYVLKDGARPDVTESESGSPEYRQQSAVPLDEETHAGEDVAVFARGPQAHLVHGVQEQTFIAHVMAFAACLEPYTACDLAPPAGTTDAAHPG
T3 sequence (P29317 24-537 limits assumed): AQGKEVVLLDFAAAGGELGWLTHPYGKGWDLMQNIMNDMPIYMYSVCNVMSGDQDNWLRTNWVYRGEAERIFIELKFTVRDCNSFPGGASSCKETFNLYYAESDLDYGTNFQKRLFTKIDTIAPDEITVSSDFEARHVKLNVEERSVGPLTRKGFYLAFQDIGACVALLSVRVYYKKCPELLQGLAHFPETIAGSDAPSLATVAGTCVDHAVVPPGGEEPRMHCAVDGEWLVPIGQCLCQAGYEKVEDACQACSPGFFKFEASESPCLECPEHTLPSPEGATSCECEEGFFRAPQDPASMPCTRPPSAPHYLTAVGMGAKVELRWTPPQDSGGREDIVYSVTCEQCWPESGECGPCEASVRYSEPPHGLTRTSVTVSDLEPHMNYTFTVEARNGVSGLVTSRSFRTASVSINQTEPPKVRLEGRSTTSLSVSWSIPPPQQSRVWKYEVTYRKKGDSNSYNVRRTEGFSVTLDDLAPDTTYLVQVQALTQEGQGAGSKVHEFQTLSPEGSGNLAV

One experiment concerns the target T3, human EphA2 (Homo sapiens, UniProt P29317).
T3 construct: a protein of the extracellular region of each human Eph receptor fused with the SEAP protein and the His tag; made in house; host or cells: Expi293F cells (culture supernatant)
In words: Selectivity ELISA of humanized antibodies for human Eph receptor. Format: binding. The settings on record: coated protein 1 nM. Put shortly:
(§1)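 His-tagged SEAP fusions of each human Eph receptor extracellular region, from Expi293F supernatants, were captured at 1 nM on anti-His-coated wells. Humanized antibody was bound 1 h at room temperature, then detected with HRP […] IgG. TMB development was acid-stopped and read at 450 nm.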
On to B1, for which the “hEphA2-SEAP-: absorbance at 450 nm, percentage with respect to hEphA4-SEAP-His as 100%” value amounted to 4.6%.
On to B2, for which the “hEphA2-SEAP-: absorbance at 450 nm, percentage with respect to hEphA4-SEAP-His as 100%” value is given as 4.9%.
On the same count and under the same terms, to B3 belongs 4.8%.
As for B4, the “hEphA2-SEAP-: absorbance at 450 nm, percentage with respect to hEphA4-SEAP-His as 100%” value was 5.1%.
The same measure, in the same setting: with B5 the figure was 5.5%; with B6, 4.5%; with B7, 4.6%.

The next experiment has as its target SEAP-His (Homo sapiens, UniProt P05187). The description is as above. The class given is binding. The note with it: coated protein 1 nM. Summed up:
as §1
Consider B1, for which the “SEAP-His: absorbance at 450 nm, percentage with respect to hEphA4-SEAP-His as 100%” value came out at 4.4%.
As for B2, the “SEAP-His: absorbance at 450 nm, percentage with respect to hEphA4-SEAP-His as 100%” value is 5.3%.
Regarding B3, the “SEAP-His: absorbance at 450 nm, percentage with respect to hEphA4-SEAP-His as 100%” value came out at 5.5%.
On to B4, for which the “SEAP-His: absorbance at 450 nm, percentage with respect to hEphA4-SEAP-His as 100%” value worked out at 5.2%.
With B5, the “SEAP-His: absorbance at 450 nm, percentage with respect to hEphA4-SEAP-His as 100%” value is recorded as 5.4%.
For the molecule B6, the “SEAP-His: absorbance at 450 nm, percentage with respect to hEphA4-SEAP-His as 100%” value is 4.7%.
With B7, the “SEAP-His: absorbance at 450 nm, percentage with respect to hEphA4-SEAP-His as 100%” value worked out at 5.0%.

A further experiment deals with T1, human EphB2. Described as above. Format: binding. The note with it: coated protein 1 nM. Summed up:
as §1
Turning to B1, the “hEphB2-SEAP-: absorbance at 450 nm, percentage with respect to hEphA4-SEAP-His as 100%” value came to 4.5%.
As to B2, the “hEphB2-SEAP-: absorbance at 450 nm, percentage with respect to hEphA4-SEAP-His as 100%” value turned out to be 5.1%.
For the molecule B3, the “hEphB2-SEAP-: absorbance at 450 nm, percentage with respect to hEphA4-SEAP-His as 100%” value was determined as 4.9%.
With B4, the “hEphB2-SEAP-: absorbance at 450 nm, percentage with respect to hEphA4-SEAP-His as 100%” value was 5.3%.
Still for that read-out and setting: to B5 belongs 5.5%; to B6, 4.5%.
As to B7, the “hEphB2-SEAP-: absorbance at 450 nm, percentage with respect to hEphA4-SEAP-His as 100%” value stood at 4.7%.

The next experiment addresses T2, human EphB3. The experiment is described as above. Format: binding. The note with it: coated protein 1 nM. Put shortly:
as §1
In the case of B1, the “hEphB3-SEAP-: absorbance at 450 nm, percentage with respect to hEphA4-SEAP-His as 100%” value is recorded as 4.7%.
On the same count and under the same terms, to B2 belongs 5.2%; to B3, 5.0%.
For B4, the “hEphB3-SEAP-: absorbance at 450 nm, percentage with respect to hEphA4-SEAP-His as 100%” value turned out to be 5.5%.
Take B5: the “hEphB3-SEAP-: absorbance at 450 nm, percentage with respect to hEphA4-SEAP-His as 100%” value is recorded as 5.6%.
B6: the “hEphB3-SEAP-: absorbance at 450 nm, percentage with respect to hEphA4-SEAP-His as 100%” value was 4.6%.
The same measure, in the same setting: with B7 the figure was 4.9%.

Another experiment concerns the target T4, human EphA5 (Homo sapiens, UniProt P54756).
T4 construct: a protein of the extracellular region of each human Eph receptor fused with the SEAP protein and the His tag; made in house; host or cells: Expi293F cells (culture supernatant)
Described as above. The class given is binding. The note with it: coated protein 1 nM. Put shortly: as §1
As for B1, the “hEphA5-SEAP-: absorbance at 450 nm, percentage with respect to hEphA4-SEAP-His as 100%” value is 4.7%.
Take B2: the “hEphA5-SEAP-: absorbance at 450 nm, percentage with respect to hEphA4-SEAP-His as 100%” value came out at 5.1%.
With B3, the “hEphA5-SEAP-: absorbance at 450 nm, percentage with respect to hEphA4-SEAP-His as 100%” value is recorded as 5.3%.
For the molecule B4, the “hEphA5-SEAP-: absorbance at 450 nm, percentage with respect to hEphA4-SEAP-His as 100%” value is reported as 5.2%.
Still for that read-out and setting: to B5 belongs 5.7%.
For B6, the “hEphA5-SEAP-: absorbance at 450 nm, percentage with respect to hEphA4-SEAP-His as 100%” value was 4.4%.
Turning to B7, the “hEphA5-SEAP-: absorbance at 450 nm, percentage with respect to hEphA4-SEAP-His as 100%” value is on record as 4.8%.
